T1: RANKL (Homo sapiens, UniProt O14788)
T1 construct: For ELISA assays, recombinant soluble RANKL and TRAIL, and antibodies directed against these proteins were obtained from PeproTech; purchased PeproTech (Rocky Hill, N.J.)
T1 sequence (O14788 140-317): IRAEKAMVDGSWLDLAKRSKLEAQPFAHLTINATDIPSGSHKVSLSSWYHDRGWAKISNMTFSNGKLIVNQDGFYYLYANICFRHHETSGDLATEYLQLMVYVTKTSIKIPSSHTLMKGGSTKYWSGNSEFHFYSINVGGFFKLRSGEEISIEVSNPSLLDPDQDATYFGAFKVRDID

T2: RANKL (Mus musculus, UniProt O35235)
T2 construct: For ELISA assays, recombinant soluble RANKL and TRAIL, and antibodies directed against these proteins were obtained from PeproTech; purchased PeproTech (Rocky Hill, N.J.)
T2 sequence (O35235 158-316): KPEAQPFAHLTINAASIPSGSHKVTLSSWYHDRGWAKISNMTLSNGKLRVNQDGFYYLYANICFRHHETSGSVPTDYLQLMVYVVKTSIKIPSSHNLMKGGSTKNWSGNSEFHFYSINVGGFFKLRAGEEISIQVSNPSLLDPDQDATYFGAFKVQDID

B1: sFRP-1: recombinant human secreted Frizzled-related protein-1 (protein, listed as Homo sapiens)
chain: MGIGRTEGGRRGAALGVLLALGGASGRGLGSEYDYVSFQSDIGPYQSGRFYTKPPQCVDIPADLRLCHNVGYKKMVLPNLLEHETMAEVKQQASSWVPLLNKNCHAGTQVFLCSLFAPVCLDRPIYPCRWLCEAVRDSCEPVMQFFGFYWPEMLKCDKFPEGDVCIAMTPPNATEASKPQGTTVCPPCDNELKSEAIIEHLCASEFALRMKIKEVKKENGDKKIVPKKKKPLKLGPIKKKDLKKLVLYLKNGADCPCHQLDNLSHHFLIMGRKVKSQYLLTAIHKWDKKNKEFKNFMKKMKNHECPTFQSVFK
B2: bacterially expressed CRD: cysteine-rich domain of sFRP-1, residues 38-166, expressed in bacteria (protein)
chain: FQSDIGPYQSGRFYTKPPQCVDIPADLRLCHNVGYKKMVLPNLLEHETMAEVKQQASSWVPLLNKNCHAGTQVFLCSLFAPVCLDRPIYPCRWLCEAVRDSCEPVMQFFGFYWPEMLKCDKFPEGDVCI
B3: sFRP-2: recombinant mouse sFRP-2 purified from transfected MDCK cells (protein)
chain: LFLFGQPDFSYKRSNCKPIPANLQLCHGIEYQNMRLPNLLGHETMKEVLEQAGAWIPLVMKQCHPDTKKFLCSLFAPVCLDDLDETIQPCHSLCVQVKDRCAPVMSAFGFPWPDMLECDRFPQDNDLCIPLASSDHLLPATEEAPKVCEACKTKNEDDNDIMETLCKNDFALKIKVKEITYINRDTKIILETKSKTIYKLNGVSERDLKKSVLWLKDSLQCTCEEMNDINAPYLVMGQKQGGELVITSVKRWQKGQREFKRISRSIRKLQC

Columns and labels:
RANKL [1] = target: T1, RANKL; experiment: ELISA of soluble RANKL binding to wells coated with sFRP-1, sFRP-1 derivatives or sFRP-2; details: ELISA, coated wells versus BSA
Experimental: (§1) ELISA experiments were generally performed as previously described (Uren et al., J. Biol. Chem. 275:4374-4382, 2000), with modifications depending on the sFRP binding partner to be tested. Typically, wells were coated with 0.5 or 1 μg of sFRP-1, blocked with BSA (0.2%, 1%, or 4%) and then incubated with putative binding partner overnight at room temperature. When investigating the binding of peptide/AP chimeras, after aspiration of bacterial broths, wells were washed and incubated with p-nitrophenolphosphate (pNPP). Color development was determined at 405 nm with an ELISA reader. For competition experiments, soluble peptides were preincubated with peptide/AP chimeras in bacterial broth for 30 min at room temperature prior to transfer into ELISA wells coated with sFRP-1 or BSA. When testing RANKL binding to sFRP-1, serial dilutions of soluble RANKL were assayed in replicate. Following overnight incubation at room temperature, RANKL solutions were aspirated and bound RANKL was detected by sequential incubations with primary antibody to RANKL, secondary antibody coupled with AP and pNPP. Similar experimental designs were employed when other TNFα family members were examined for binding to sFRPs, and when sFRP-1 derivatives or sFRP-2 were the binding targets for RANKL.
(§2) The possibility that sFRP-1 (SEQ ID NO: 3) and RANKL interact directly with each other was tested using an ELISA assay. […] RANKL was then incubated in these wells and in adjacent wells that had only been treated with BSA.

RANKL [2] = target: T2, RANKL; experiment: as above; details: RANKL variant with amino-terminal sequence beginning with residue 158
Experimental: as §1, §2

[3] = system: co-cultures of primary osteoblasts and bone marrow cells; experiment: Osteoclastogenesis co-culture of primary osteoblasts and bone marrow cells (TRAP+ cells); assay type: cell-based, mouse; details: vitamin D3 (10^-8 M) and PGE2 (10^-7 M)
Experimental: Osteoblastic cells were prepared from the calvaria of newborn mice by digestion with 0.1% collagenase (Worthington Biochemical Co., Freefold, […]) and 0.2% dispase (Godo Shusei, Tokyo, Japan). Bone marrow and spleen cells were obtained from adult and from newborn mice, respectively (Udagawa et al., J. Exp. Med. 182: 1461-1468, 1995). Osteoblastic cells were co-cultured with bone marrow or spleen cells as described previously (Udagawa et al., J. Exp. Med. 182: 1461-1468, 1995). In short, primary osteoblastic cells (2×10^4/well) and nucleated spleen cells (1×10^6/well) or marrow cells (5×10^5/well) were co-cultured in 48-well plates (Corning Glass Inc., Corning, N.Y.) with 0.4 mL of α-MEM (GIBCO/BRL, Grand Island, N.Y.) containing 10% fetal bovine serum (Cytosystems, Castle Hill, NSW, Australia) in the presence of test chemicals. Cultures were incubated in quadruplicate and cells were replenished on day 3 with fresh medium. Osteoclast formation was evaluated after culturing for 6-7 days. Adherent cells were fixed and stained for tartrate-resistant acid phosphatase (TRAP), and the number of TRAP-positive osteoclasts was scored as described (Udagawa et al., J. Exp. Med. 182: 1461-1468, 1995). For TRAP staining, adherent cells were fixed with 4% formaldehyde in PBS for 3 minutes. After treatment with ethanol-acetone (50/50, vol/vol) for 1 minute, the well surface was air dried and incubated for 10 minutes at room temperature in an acetate buffer (0.1 M sodium acetate, pH 5.0) containing 0.01% naphthol AS-MX phosphate (Sigma) as a substrate and 0.03% red violet LB salt (Sigma) as a stain for the reaction product in the presence of 50 mM sodium tartrate. TRAP-positive cells appeared dark red, and those with three or more nuclei were scored as multinucleated and considered as osteoclasts. […] CTR expression was determined either by autoradiography with ^125I-salmon calcitonin or by immunohistochemical localization using an array of antibodies we have developed as described by Quinn et al., Bone 25:1-8, 1999.

RAW264.7 cells [4] = experiment: RANKL-independent (TNFα-dependent) osteoclast formation in RAW264.7+TNFα+TGFβ; assay type: cell-based
Experimental: The effect of sFRP-1 was assessed upon a RANKL-independent method of osteoclast formation using the monocyte/macrophage cell line RAW264.7 (Quinn et al., Journal of Bone and Mineral Research. 16, 1787-1794, 2001) and was compared with that of osteoprotegerin (FIG. 14).
(§3) The effect of bacterially expressed CRD was assessed in three different cell culture models of osteoclast formation. These were: (1) bone marrow cells+RANKL+M-CSF, (2) the macrophage/monocyte cell line RAW264.7+RANKL, and (3) RAW264.7+TNFα+TGFβ (Horwood et al., Journal of Immunology 166:4915-4921, 2001; Quinn et al., Journal of Bone and Mineral Research. 16, 1787-1794, 2001).

TNFα = TNFα (Homo sapiens, UniProt P01375); experiment: ELISA of TNFα binding to sFRP-1; details: ELISA format
Experimental: as §1, with “RANKL. […]” for “RANKL.”

RAW264.7 cells [5] = experiment: RANKL-induced osteoclast formation in RAW264.7 cells; assay type: cell-based; details: RAW264.7+RANKL
Experimental: In some instances, experiments were performed either with adult mouse spleen cells or with RAW264.7 cells treated with M-CSF and RANKL as described in Quinn et al., Endocrinology 139:4424-4427, 1998. Where indicated, these assays were conducted in the presence or absence of splenic T cells. T cell fractions were prepared as described in Horwood et al., Journal of Clinical Investigation 101:595-603, 1998.
as §3

bone marrow cells = experiment: Osteoclast formation in bone marrow cells+RANKL+M-CSF; assay type: cell-based
Experimental: as §3

TRAIL = target: T3, TRAIL (Homo sapiens, UniProt P50591); experiment: ELISA of TRAIL binding to sFRP-2; details: ELISA format
T3 construct: For ELISA assays, recombinant soluble RANKL and TRAIL, and antibodies directed against these proteins were obtained from PeproTech; purchased PeproTech (Rocky Hill, N.J.)
Experimental: as §1, with “RANKL. […]” for “RANKL.”

T3 sequence (P50591 39-281 limits assumed, species assumed): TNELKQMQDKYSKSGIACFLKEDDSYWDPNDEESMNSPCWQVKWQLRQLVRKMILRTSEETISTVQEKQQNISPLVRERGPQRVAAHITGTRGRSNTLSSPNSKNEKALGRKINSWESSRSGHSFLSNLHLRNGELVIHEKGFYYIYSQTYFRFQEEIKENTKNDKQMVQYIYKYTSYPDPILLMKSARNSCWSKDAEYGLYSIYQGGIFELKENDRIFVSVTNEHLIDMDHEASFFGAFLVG
TNFα, sequence (P01375 77-233 limits assumed, species assumed): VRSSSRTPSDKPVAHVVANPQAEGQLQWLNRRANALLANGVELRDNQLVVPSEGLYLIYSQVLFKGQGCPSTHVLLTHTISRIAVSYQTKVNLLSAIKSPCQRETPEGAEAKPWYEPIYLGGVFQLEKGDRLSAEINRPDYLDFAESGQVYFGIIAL

| Molecule | binding to RANKL (RANKL [1]) | binding to a derivative of RANKL lacking the A-C2 motif (RANKL [2]) | reduction of the number of multinucleated TRAP+ cells ([3]; 300 ng/mL) [%] | reduction of the number of multinucleated TRAP+ cells ([3]; 1.6 ug/mL) [%] | effect on osteoclast formation [3] | effect on TNFα-dependent osteoclast formation (RAW264.7 cells [4]; present during the first three days of culture) | binding to TNFα (TNFα) | effect on osteoclast formation (RAW264.7 cells [5]) | effect on osteoclast formation (RAW264.7 cells [4]; RAW264.7+TNFα+TGFβ, RANKL-independent) | effect on osteoclast formation (bone marrow cells) | binding to TRAIL (TRAIL) |
| --- | --- | --- | --- | --- | --- | --- | --- | --- | --- | --- | --- |
| B1 | bound specifically | observed binding | 50 | 95 | dose-dependent inhibitory activity | inhibited | can bind | – | – | – | – |
| B2 | strong | – | – | – | – | – | – | mimicked the action of full-length sFRP-1 and with similar potency | mimicked the action of full-length sFRP-1 and with similar potency | mimicked the action of full-length sFRP-1 and with similar potency | – |
| B3 | can bind | – | – | – | – | – | – | – | – | – | can bind |

From patent US8334260B2, “sFRP and peptide motifs that interact with sFRP and methods of their use” (The United States of America as represented by the …, priority 2001, dated 2012)
